From US20190106498A1, “TREATMENT FOR ACUTE MYELOID LEUKEMIA” (priority 2017, published 2019)

How the values were obtained:
Numb = Numb expression in purified AML blasts of patients; type: in vivo, human; conditions: monotherapy at C1D1; combination at C4D1
Protocol: FIGS. 8A-8B Purified AML blasts (FACS gate: CD45^dim SSC^low AV^−CD4^−CD8^−CD19^−) were fixed, permeabilized and cells incubated overnight with α-Numb antibody, followed by staining with a fluorescently labeled secondary antibody. DAPI was used to counterstain for DNA. Samples were acquired on an ImageStreamX® Mark II imaging flow cytometer (Amnis/EMD Millipore) and analyzed using INSPIRE™ and IDEAS® software (Amnis/EMD Millipore). FIG. 8A) Total Numb expression (Mean fluorescence intensity) was determined across the slide for bone marrow samples of one patient harvested at baseline (“screening”), after ARGX-110 monotherapy (C1D1) and after combination treatment (C4D1). FIG. 8B) Symmetrically (SD) and asymmetrically dividing (AD) cells were scored for a bone marrow patient sample at baseline (“before”) and after ARGX-110 monotherapy (after αCD70).
The level of asymmetric division in a population of LSCs can be determined by measuring the level of a cell fate determinant such as the Numb protein (Riether et al., J Exp Med. 2017 February; 214(2): 359-380, incorporated herein by reference). Increased Numb expression is indicative of an increase in asymmetric division and therefore an increase in myeloid differentiation and decreased LSC populations.

blasts = assay: Phase I/II trial: blasts in bone marrow and peripheral blood (cytomorphology, flow cytometry, MRD); type: in vivo, human
Protocol: (§1) FIGS. 6A-6C Bone marrow (BM) blast load was assessed by cytomorphology (FIG. 6A), and flow cytometry using leukemia-associated immunophenotype (LAIP) gating (FIG. 6B) and blast gating (SSClow CD45dim; FIG. 6C). The latter method was used to determine measurable/minimal residual disease (MRD) status of the patient.
as §1, with “7A-7C Peripheral blood (PB)” for “6A-6C Bone marrow (BM)”, “7A),” for “6A),”, “7B)” for “6B)”, “CD45 dim;” for “CD45dim;”, “7C).” for “6C).”
Minimal residual disease (MRD) assessments were performed on bone marrow aspirates and/or whole blood collected at time points as specified in FIG. 5. Flow cytometry was utilized as the primary method of MRD analysis. Suitable flow cytometry markers for MRD assessment and determining AML subtype include CD16, CD13, CD34, CD117, CD11 b, CD10, HLA-DR, CD45, CD35, CD64, IREM-2, CD36, CD105, CD14, CD33, CD71, CD36, CD105, CD33, CD71, cTdT, CD56, CD7, CD19, cMPO, cLactoferrin, cLysozyme. An additional panel was used as a part of the trial, focusing on CD70, CD27 expression as well as markers indicative of stem cell potential or myeloid differentiation: CD27, CD70, CD34, CD117, CD11 b, HLA-DR, CD45, CD38, and CD123. When available, flow cytometry results were compared to other molecular approaches such as polymerase chain reaction (PCR) test.
For each patient, the number of blasts in bone marrow and peripheral blood were assessed at various time-points as outlined in FIG. 5.
To assess bone marrow blasts, bone marrow aspirates taken at the various time points were analysed. Methylcellulose colony assays using FACS sorted monocytes (mononuclear cells (CD45^dim) were selectively sorted by excluding doublets, dead cells and lymphocytes using Annexin V and antibodies for CD19 and CD4/CD8) were used to assess the number of LSCs in the bone marrow. In addition, bone marrow blast percentages were also assessed by cell morphology and flow cytometric analysis.

healthy stem cells = type: cell-based, human
Protocol: FIGS. 3A-3F Anti-CD70/decitabine co-treatment reduces re-plating capacity of human CD34+CD38− AML stem/progenitor cells. […] Colonies and cells were enumerated after 14 days. (FIG. 3A) Colonies per 1×10^3 plated cells. (FIG. 3B) Cells per colony. (FIG. 3C) Serial re-plating experiments. (d-f) FACS-purified lin-CD90+CD34+CD38− stem/progenitor cells from BM of “healthy” donors were cultured and plated in methylcellulose as described in (a-c). (FIG. 3D) Colonies per 1×10^3 plated cells. (FIG. 3E) Cells per colony. (FIG. 3F) Serial re-plating experiments. Data are represented as mean±S.D. Statistics: One-way-ANOVA. Dunnett's post-test (vs. αCD70/D); *, P<0.05; **, P<0.01; ***, P<0.001.

[1] = patient 1001001, 1 mg/kg with AZA, C3D1
[2] = patient 1001001, 1 mg/kg with AZA, C4D1
[3] = patient 1001002, 1 mg/kg with AZA, C2D17
[4] = patient 1001002, single dose 1 mg/kg

B1: ARGX-110: IgG1 anti-CD70 antibody with defucosylated Fc region; VH SEQ ID NO: 4, VL SEQ ID NO: 8 (antibody, V domains shown)
VH: EVQLVESGGGLVQPGGSLRLSCAASGFTFSVYYMNWVRQAPGKGLEWVSDINNEGGTTYYADSVKGRFTISRDNSKNSLYLQMNSLRAEDTAVYYCARDAGYSNHVPIFDSWGQGTLVTVSS
VL: QAVVTQEPSLTVSPGGTVTLTCGLKSGSVTSDNFPTWYQQTPGQAPRLLIYNTNTRHSGVPDRFSGSILGNKAALTITGAQADDEAEYFCALFISNPSVEFGGGTQLTVLG
modifications: IgG1, defucosylated Fc; Custom antibody fragment
- Numb expression (Numb): increased
- PB blast percentage (blasts; following monotherapy, C1D1 vs earlier): reduced
- bone marrow blasts according to MRD criteria (blasts; in vivo): significantly reduced
- bone marrow blast percentage (blasts; majority of patients, by C1D1 following monotherapy): at least partially or completely reduced by C1D1
- BM blasts by flow cytometry (blasts; [1]): 2.8%
- MRD for peripheral blood (blasts; [1]): 0.3%
- minimal residual disease analysis (MRD), bone marrow (blasts; [1]): 0.2%
- peripheral blood blast percentage by cell morphology (blasts; [2]): 0%
- peripheral blood blast percentage by flow cytometry (blasts; [2]): 0.8%
- peripheral blood MRD class (blasts; patient 1001001, 1 mg/kg with AZA, C4D17): MRD-negative
- peripheral blood blasts (blasts; patient 1001001, 1 mg/kg with AZA, after first complete cycle (C2D1)): cleared
- blast cell populations by cell morphology and flow cytometry (blasts; patient 1001001, single (loading) dose 1 mg/kg): reduction in bone marrow and in peripheral blood
- percentage of blasts in peripheral blood by cell morphology (blasts; [3]): 0%
- percentage of blasts in peripheral blood by flow cytometry (blasts; [3]): 0.8%
- overall blast percentage in peripheral blood (blasts; patient 1001002, 1 mg/kg with AZA, end of cycle 1 (C2D1)): approaching zero
- overall blast percentage in peripheral blood (blasts; patient 1001002, after loading dose 1 mg/kg (C1D1 vs screening)): fell
- percentage of total blasts in bone marrow by cell morphology (blasts; [4]): an increase was observed
- percentage of total blasts in bone marrow by flow cytometry (blasts; [4]): appeared to be reduced
- blast percentage (blasts; patient 1001003, C1D1): stable
- peripheral blasts (blasts; patient 1001003, with AZA, 1 cycle (C2D1)): no peripheral blasts
- PB blast percentage (blasts; under combination therapy with aza, from C1D1 onwards): further reduced
- effect on healthy stem cells (colonies, cells per colony, re-plating) (healthy stem cells): no effect on healthy cells compared to vehicle alone
